Consider 1 protein from US6506595.

The target in series [1] is MWPmp20-(His)6-EGF-TEV-Somatostatin 28.
Series [2] has as its target MWPmp20-TEV-G-GH.

B1: TEV protease (GIBCO BRL) (protein)
chain: GESLFKGPRDYNPISSTICHLTNESDGHTTSLYGIGFGPFIITNKHLFRRNNGTLLVQSLHGVFKVKNTTTLQQHLIDGRDMIIIRMPKDFPPFPQKLKFREPQREERICLVTTNFQTKSMSSMVSDTSCTFPSSDGIFWKHWIQTKDGQCGSPLVSTRDGFIVGIHSASNFTNTNNYFTSVPKNFMELLTNQEAQQWVSGWRLNADSVLWGGHKVFMSKPEEPFQPVKEATQLMNELVYSQ
With B1, the “cleavage of the fusion protein, shown by Western blotting” value in series [1] is recorded as “somatostatin 28 was cleaved out with TEV protease”. Moreover, the “cleavage of the fusion protein, shown by SDS-PAGE and Western blotting” value in series [2] is on record as “the mutant human growth hormone G-GH with extra Gly at the N-terminus was cleaved at the same position (as indicated by an arrow) as the commercially available human growth hormone”.
